Test results taken from patent publication US20200048372A1 (UCB, published 2020).

What was measured:
human serum albumin [1] = target: T1, human serum albumin (human, UniProt P02768 25-609); experiment: SPR (Biacore)
T1 construct: also called HSA; HumanSA

human serum albumin [2] = target: T1, human serum albumin; experiment: SPR (Biacore), purified construct captured, HSA injected
mouse serum albumin = target: T2, mouse serum albumin (mouse, UniProt P07724 25-608); experiment: SPR (Biacore), purified construct captured, MSA injected
T2 construct: also called MSA; MurineSA

Row | Kd (human serum albumin [1]) [nM] | koff (human serum albumin [1]) [s⁻¹] | kon (human serum albumin [1]) [M⁻¹ s⁻¹] | koff (human serum albumin [2]) [s⁻¹] | koff (mouse serum albumin) [s⁻¹] | Binder
1 | 51.6 | 0.0186 | 360000 | – | – | FabB-645dsFv (S3xG4S) with Fv heavy mutation T100aA (bispecific antibody, part only; not given: anti-OX40 Fab and linkers, V domains shown, not shown: another chain or arm of the molecule; large carriers; small tags and cut ends, Interchain disulfide between VH Cys44 and VL Cys100 (Kabat) of the dsFv) VH: EVQLLESGGGLVQPGGSLRLSCAVSGIDLSNYAINWVRQAPGKCLEWIGIIWASGTTFYATWAKGRFTISRDSTTVYLQMNSLRAEDTAVYYCARTVPGYSAAPYFDLWGQGTLVTVSS VL: DIVMTQSPSSVSASVGDRVTITCQSSPSVWSNFLSWYQQKPGKAPKLLIYEASKLTSGVPSRFKGSGSGTDFTLTISSLQPEDFATYYCGGGYSSISDTTFGCGTKVEIK
2 | – | – | – | 0.000206 | 0.000182 | FabB-didAb, -dAbL1 (CK-G4Sx2) & dAbH1 (CH1-G4Sx2) (bispecific antibody, also called FabB-645Fv (G4Sx2); FabB-645Fv (2xG4S)) heavy: ASTKGPSVFPLAPSSKSTSGGTAALGCLVKDYFPEPVTVSWNSGALTSGVHTFPAVLQSSGLYSLSSVVTVPSSSLGTQTYICNVNHKPSNTKVDKKVEPKSCGGGGSGGGGSEVQLLESGGGLVQPGGSLRLSCAVSGIDLSNYAINWVRQAPGKGLEWIGIIWASGTTFYATWAKGRFTISRDSTTVYLQMNSLRAEDTAVYYCARTVPGYSTAPYFDLWGQGTLVTVSS light: RTVAAPSVFIFPPSDEQLKSGTASVVCLLNNFYPREAKVQWKVDNALQSGNSQESVTEQDSKDSTYSLSSTLTLSKADYEKHKVYACEVTHQGLSSPVTKSFNRGECGGGGSGGGGSDIVMTQSPSSVSASVGDRVTITCQSSPSVWSNFLSWYQQKPGKAPKLLIYEASKLTSGVPSRFKGSGSGTDFTLTISSLQPEDFATYYCGGGYSSISDTTFGGGTKVEIK
